Reference: article PMC9635822
Values belong to the substance of their own block, whether it stands above or below them.

Assays:
Experiment in all cases: optical tweezers, force between two trapped cells
[1] = target: AGA2-Im7 displayed on S. cerevisiae cells (ScΨ) (UniProt Q03708)
[2] = target: AGA2-CL7 displayed on S. cerevisiae cells (ScΦ) (UniProt Q47112)
[3] = target: AGA2-SpyCatcher displayed on S. cerevisiae cells (ScB)
[4] = target: AGA2-SpyTag displayed on S. cerevisiae cells (ScA)

UniProt Q03708, sequence (Q03708 whole entry): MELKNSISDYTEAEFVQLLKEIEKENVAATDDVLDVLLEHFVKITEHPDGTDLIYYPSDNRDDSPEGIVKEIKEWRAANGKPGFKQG

force needed to pull apart the new cells of the cluster [1]: < 351 pN | pulling force up to which the two cells remained attached [1]: 335 pN
Substance: AGA2-CL7 displayed on S. cerevisiae cells (ScΦ) (from UniProt Q47112 371-576) (domain or fragment)

interaction force between the two cells [2]: < 10 pN
Substance: AGA2-SpyCatcher displayed on S. cerevisiae cells (ScB) (designed binder)

Substance: AGA2-SpyTag displayed on S. cerevisiae cells (ScA) (peptide)
force needed to pull apart the new cells of the cluster [3]: < 248 pN | pulling force up to which the two cells remained attached [3]: 335 pN | interaction force between the two cells [4]: < 10 pN
